Values quoted from earlier work as cited in paper PMC5418926.

Target: Lys53 (UniProt position 53, YGGQTKPIFRK)
Assay: chemical modification (inferred: crosslinking with periodate-oxidised tRNA); not described in this article

Substance: 60S ribosomal protein eL42 (L36a-like / RPL36AL), endogenous, in the human 80S ribosome (Homo sapiens)
- pKa (endogenous eL42 in situ in the human 80S ribosome, crosslinked with tRNAox): 6.9 ± 0.1

Substance: 60S ribosomal protein eL42 (formerly L36a / RPL36A), recombinant (Homo sapiens)
- pKa (recombinant eL42 off the ribosome): 6.9 + 0.1
